The values that follow come from patent US10465009B2, “BCMA antigen binding proteins” (Amgen Inc., priority 2012, dated 2019).

B1: 29C12.1 ADC (conjugate)
VH: EVQLLESGGALVQPGGSLRLSCAASGFTFSSYAMNWVRQAPGKGLEWVSAISVGGDTYYADSVKGRFTISRDNSKNTLYLQMNSLRAEDTAVYYCAKDQVTMVRGVWYYYGLDVWGQGTTVTVSS
VL: DIVMIQSPLSLPVTPGEPASISCRSSQSLLHSNGNNYLDWYLQKPGQSPHLLISLGSNRTSGVPDRFSGSGSGTDFTLKISRVEAEDVGVYYCMQALQPPRRFGQGTKLEIKR
B2: 35D2.1 ADC (conjugate)
VH: EVQLLESGGALVQPGGSLRLSCAASGFTFSSYAMNWVRQAPGKGLEWVSAISVGGGTYYADSVKGRFTISRDNSKNTLYLHVNSLRAEDTAVYYCAKDQVTMVRGVWYYYGLDVWGQGTTVTVSS
VL: VIVLIQSPLSLPVTPGEPASISCRSSQSLLHSNGNNYLDWYLQKPGQSPHLLISLGSNRTSGVPDRFSGSGSGTDFTLKISRVEAEDVGFYYCMQALQPPRRFGQGTKLEIKR
B3: 37B2.1 ADC (conjugate)
VH: EVQLLESGGALVQPGGSLRLSCAASGFTFSNYAMNWVRQAPGKGLEWVSAISVGGDTYYADSVKGRFTISRDNSKNTLYLHVNSLSAEDSAVYYCAKDQVTLVRGVWYYYGLDVWGQGTTVTVSS
VL: VIVLIQSPLSLPVTPGEPASISCRSSQSLLHSNGNNYLDWYLQKPGQSPHLLISLGSNRTSGVPDRFSGSGSGTDFTLKISRVEAEDVGFYYCMQALQPPRRFGQGTKLEIKR
B4: 29C12-MCC-DM1 (conjugate)
VH: EVQLLESGGALVQPGGSLRLSCAASGFTFSSYAMNWVRQAPGKGLEWVSAISVGGDTYYADSVKGRFTISRDNSKNTLYLQMNSLRAEDTAVYYCAKDQVTMVRGVWYYYGLDVWGQGTTVTVSS
VL: DIVMIQSPLSLPVTPGEPASISCRSSQSLLHSNGNNYLDWYLQKPGQSPHLLISLGSNRTSGVPDRFSGSGSGTDFTLKISRVEAEDVGVYYCMQALQPPRRFGQGTKLEIKR
B5: 32B5-MCC-DM1 (conjugate)
VH: EVQLLESGGALVQPGGSLRLSCAASGFTFSSYAMNWVRQAPGKGLEWVSAISVGGDTYYADSVKGRFTISRDNSKNTLYLHVNSLSAEDSAVYYCAKDQVTLVRGVWYYYGLDVWGQGTTVTVSS
VL: VIVLIQSPLSLPVTPGEPASISCRSSQSLLHSNGNNYLDWYLQKPGQSPHLLISLGSNRTSGVPDRFSGSGSGTDFTLKISRVEAEDVGFYYCMQALQPPRRFGQGTKLEIKR
B6: 33C7.1 ADC (conjugate)
VH: EVQLLESGGALVQPGGSLRLSCAASGFTFSSYAMNWVRQAPGKGLEWVSAISVGGDTYYADSVKGRFTISRDNSKNTLYLHVNSLSAEDSAVYYCAKDQVTLVRGVWYYYGLDVWGQGTTVTVSS
VL: VIVLIQSPLSLPVTPGEPASISCRSSQSLLHSNGNNYLDWYLQKPGQSPHLLISLGSNRTSGVPDRFSGSGSGTDFTLKISRVEAEDVGFYYCMQALQPPRRFGQGTKLEIKR
B7: 32B5.1 ADC (conjugate)
VH: EVQLLESGGALVQPGGSLRLSCAASGFTFSSYAMNWVRQAPGKGLEWVSAISVGGDTYYADSVKGRFTISRDNSKNTLYLHVNSLSAEDSAVYYCAKDQVTLVRGVWYYYGLDVWGQGTTVTVSS
VL: VIVLIQSPLSLPVTPGEPASISCRSSQSLLHSNGNNYLDWYLQKPGQSPHLLISLGSNRTSGVPDRFSGSGSGTDFTLKISRVEAEDVGFYYCMQALQPPRRFGQGTKLEIKR
B8: 40D7.1 ADC (conjugate)
VH: EVQLLESGGALVQPGGSLRLSCAASGFTFSSYAMNWVRQAPGKGLEWVSAISVGGDTYYADSVKGRFTISRDNSKNTLYLQMNSLRAEDTAVYYCAKDQVTMVRGVWYYYGLDVWGQGTTVTVSS
VL: DIVMIQSPLSLPVTPGEPASISCRSSQSLLHSNGNNFLDWYLQKPGQSPHLLISLGSNRTSGVPDRLSGSGSGTDFTLKISRVEAEDVGIYYCMQALRPPRRFGQGTKLEIKR
B9: 29C12: second campaign anti-huBCMA mAb, Vh SEQ ID NO:220, Vl SEQ ID NO:254 (antibody, V domains shown)
VH: EVQLLESGGALVQPGGSLRLSCAASGFTFSSYAMNWVRQAPGKGLEWVSAISVGGDTYYADSVKGRFTISRDNSKNTLYLQMNSLRAEDTAVYYCAKDQVTMVRGVWYYYGLDVWGQGTTVTVSS
VL: DIVMIQSPLSLPVTPGEPASISCRSSQSLLHSNGNNYLDWYLQKPGQSPHLLISLGSNRTSGVPDRFSGSGSGTDFTLKISRVEAEDVGVYYCMQALQPPRRFGQGTKLEIKR

“Also recorded” adds a separate entry of the source.

The subject of the first assay is H929 cells. Briefly: CellTiter-Glo Luminescent Cell Viability Assay, H929. It is filed as cell-based, human.
Conditions: not given
As to the method: The ADCs were tested for the ability to target and kill BCMA-expressing myeloma cells. The CellTiter-Glo® Luminescent Cell Viability Assay is a homogeneous method to determine the number of viable cells in culture based on quantitation of the ATP present, which signals the presence of metabolically active cells. The CellTiter-Glo® Assay is applicable to cytotoxicity assays (see http://www.promega.com/products/cell-health-assays/cell-viability-assays/celltiterglo-luminescent-cell-viability-assay/ for more information). The cell viability assay was used to assess the relative killing capacity of various ADCs on various multiple myeloma cell lines and B-cell lines. The protocol provided in the Cell Titer-Glo kit (Promega G7572) was followed. In short, 5×10^3 target cells in 90 ul RPMI 1640, 10% FBS were aliquoted into clear, flat bottom, white walled 96 well plates (Costar #3903). The ADCs were diluted into a 10× stock to create 500 nM maytansine drug equivalents. Each ADC was serially diluted in 2-fold dilutions in RPMI 1640, 10% FBS starting with 500 nM stock. 10 ul of the 10×ADC dilution series was added to the 90 ul of cells in media (triplicate wells). The highest concentration of ADC was approximately 50 nM maytansine drug equivalents, and the lowest concentration of ADC was approximately 50 pM maytansine drug equivalents. An isotype control ADC (an anti-streptavidin huIgG1 conjugated to MCC-DM1) was included, as well as a media-only control. The plates were incubated at 37° C., 5% CO2 for 96 hours. After incubation, 100 ul of the Substrate Solution (Promega G7572) was added to each well. Luminescence was read on an EnVision™ Multilabel reader (PerkinElmer) or Analyst HT plate reader (LJL Biosciences). The data was analyzed and graphed using GraphPad Prism™ to determine the relative efficacy of the ADCs on various cancer cell lines.
The 2A1CV5-MCC-DM1, 32B5-MCC-DM1 and 29C12-MCC-DM1 ADCs were tested for the ability to target and kill BCMA-expressing myeloma cells (H929). The CellTiter-Glo® Luminescent Cell Viability Assay is a homogeneous method to determine the number of viable cells in culture based on quantitation of the ATP present, which signals the presence of metabolically active cells. The CellTiter-Glo® Assay is applicable to cytotoxicity assays (see http://www.promega.com/products/cell-health-assays/cell-viability-assays/celltiter_glo-luminescent-cell-viability-assay/ for more information). The cell viability assay was used to assess the relative killing capacity of various ADCs on various multiple myeloma cell lines and B-cell lines. The protocol provided in the Cell Titer-Glo kit (Promega G7572) was followed. In short, 5×10^3 target cells in 90 ul RPMI 1640, 10% FBS were aliquoted into clear, flat bottom, white walled 96 well plates (Costar #3903). The ADCs were diluted into a 10× stock to create 500 nM maytansine drug equivalents. Each ADC was serially diluted in 2-fold dilutions in RPMI 1640, 10% FBS starting with 500 nM stock. 10 ul of the 10×ADC dilution series was added to the 90 ul of cells in media (triplicate wells). The highest concentration of ADC was approximately 50 nM maytansine drug equivalents, and the lowest concentration of ADC was approximately 50 pM maytansine drug equivalents. An isotype control ADC (an anti-streptavidin huIgG1 conjugated to MCC-DM1) was included, as well as a media-only control. The plates were incubated at 37° C., 5% CO2 for 96 hours. After incubation, 100 ul of the Substrate Solution (Promega G7572) was added to each well. Luminescence was read on an EnVision™ Multilabel reader (PerkinElmer) or Analyst HT plate reader (LJL Biosciences). The data was analyzed and graphed using GraphPad Prism™ to determine the relative efficacy of the ADCs on various cancer cell lines.
In general terms: ATP-based viability assays read luminescence as a measure of living cells.
As to B1, the “killing of huBCMA-expressing myeloma cells (H929)” value (“killing … (H929)” below) is “selectively killed huBCMA-expressing target cells; also recorded: showed cytotoxicity”.

As to B2, the “killing … (H929)” value is given as “selectively killed huBCMA-expressing target cells; also recorded: showed cytotoxicity”.

With B3, the “killing … (H929)” value was “selectively killed huBCMA-expressing target cells; also recorded: showed cytotoxicity”.

Regarding B4, the “killing … (H929)” value was “able to target and kill BCMA-expressing myeloma cells (H929)”.

Consider B5, for which the “killing … (H929)” value is “able to target and kill BCMA-expressing myeloma cells (H929)”.

Consider B6, for which the “killing … (H929)” value is “selectively killed huBCMA-expressing target cells; also recorded: showed cytotoxicity”.

On to B7, for which the “killing … (H929)” value is reported as “selectively killed huBCMA-expressing target cells; also recorded: showed cytotoxicity”.

With B8, the “killing … (H929)” value is “selectively killed huBCMA-expressing target cells; also recorded: showed cytotoxicity”.

In the next assay the target is T1, [6x Histidine-SUMO]-huBCMA (SEQ ID NO:350) and carboxy terminal clipped forms (Homo sapiens, UniProt Q02223).
T1 construct: GGS-G3 linker + Avi tag (lost in the clipped species) (C); made in house
T1 sequence (Q02223 5-54): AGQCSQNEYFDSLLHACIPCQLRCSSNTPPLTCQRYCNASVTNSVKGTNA
Briefly: Size exclusion chromatography and LC/MS of antibody complexes with Sumo-huBCMA and its clipped forms. The settings on record: SEC. It is filed as binding. An excerpt:
To determine which forms of 6×His-SUMO-huBCMA were bound to the anti-huBCMA antibodies, the SEC fractions were isolated and analyzed. Carboxy-terminus fragments of the extracellular domain of human BCMA were generated as clipped forms from the rhuBCMA fusion protein (6×His::Sumo::huBCMA(aa 5-51)::GGS::G3::Avi) of SEQ ID NO:350, as shown in FIG. 45.
A Superdex 200™ 10/30 cm SEC column (GE Healthcare Life Sciences) was used according to the manufacturer's recommendations and run in phosphate buffered saline (PBS). Incubations of antibody with excess levels of sumoBCMA were performed at room temperature for at least 30 minutes.
A Superdex 200™ 10/30 cm SEC column (GE Healthcare Life Sciences) was used according to the manufacturer's recommended condision and run in phosphate buffered saline (PBS). Incubations of antibody with excess levels of sumoBCMA were performed at room temperature for at least 30 minutes.
5 ug of total proteins were reduced in 50 mM Tris/4 M guanidine/9 mM DTT, pH 8.0 at 55° C. for 15 min, and analyzed in Agilent LCTOF system using a Vydac C8 column, 2.1 mm ID×150 mm, […] particle size. […] TOF MS conditions included capillary voltage of 4000 V, drying gas flow at 10 L/min, dry gas temperature at 300° C., nebulizer gas flow at 40 L/min, and fragmentor voltage of 300 V. MS data was analyzed in Agilent MassHunter™ Qualitative Analysis program.
A general note: SEC sorts molecules by how far they enter the pores of the column.
For B9, the “binding to full-length and truncated forms of huBCMA” value was “bound full-length and truncated forms of BCMA; also recorded: bound all forms of human BCMA”.

For a further assay, the system named is various cell lines. Briefly: Cell viability control: cell lines exposed to free DM1. It is filed as cell-based, human. The conditions noted are these: FIG. 13. As to the method: The ADCs were tested for the ability to target and kill BCMA-expressing myeloma cells. The CellTiter-Glo® Luminescent Cell Viability Assay is a homogeneous method to determine the number of viable cells in culture based on quantitation of the ATP present, which signals the presence of metabolically active cells. The CellTiter-Glo® Assay is applicable to cytotoxicity assays (see http://www.promega.com/products/cell-health-assays/cell-viability-assays/celltiterglo-luminescent-cell-viability-assay/ for more information). The cell viability assay was used to assess the relative killing capacity of various ADCs on various multiple myeloma cell lines and B-cell lines. The protocol provided in the Cell Titer-Glo kit (Promega G7572) was followed. In short, 5×10^3 target cells in 90 ul RPMI 1640, 10% FBS were aliquoted into clear, flat bottom, white walled 96 well plates (Costar #3903). The ADCs were diluted into a 10× stock to create 500 nM maytansine drug equivalents. Each ADC was serially diluted in 2-fold dilutions in RPMI 1640, 10% FBS starting with 500 nM stock. […] Luminescence was read on an EnVision™ Multilabel reader (PerkinElmer) or Analyst HT plate reader (LJL Biosciences). The data was analyzed and graphed using GraphPad Prism™ to determine the relative efficacy of the ADCs on various cancer cell lines. […]
With `COc1cc2cc(c1Cl)N(C)C(=O)C[C@H](OC(=O)[C@H](C)N(C)C(=O)CCS)[C@]1(C)O[C@H]1[C@H](C)[C@@H]1C[C@@](O)(NC(=O)O1)[C@H](OC)/C=C/C=C(\C)C2` [DM1], the “killing of cell lines by free drug” value is “killed by free DM1”.
